Reference: publication doi:10.1101/041756
Where two headings read alike, the source gives them in different places.

Tests used:
[1] = target: microtubules (human (endogenous in HeLa)) (UniProt P68363)
[2] = target: microtubules (human (endogenous in HeLa)) (UniProt P68363); remark: listed apart in the source

Sequence of UniProt P68363 (P68363 whole entry): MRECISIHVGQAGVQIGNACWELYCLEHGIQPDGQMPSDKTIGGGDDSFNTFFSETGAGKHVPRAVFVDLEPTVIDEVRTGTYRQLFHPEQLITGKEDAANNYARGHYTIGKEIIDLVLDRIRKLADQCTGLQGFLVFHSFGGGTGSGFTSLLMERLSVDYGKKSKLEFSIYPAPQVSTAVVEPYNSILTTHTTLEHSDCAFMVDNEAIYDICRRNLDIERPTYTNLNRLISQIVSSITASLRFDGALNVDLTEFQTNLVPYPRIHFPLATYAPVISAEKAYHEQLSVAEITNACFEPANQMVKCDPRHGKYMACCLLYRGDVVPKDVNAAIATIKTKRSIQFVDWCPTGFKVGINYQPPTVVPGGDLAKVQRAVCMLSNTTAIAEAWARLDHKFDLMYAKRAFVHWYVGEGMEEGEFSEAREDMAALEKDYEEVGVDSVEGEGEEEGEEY

Substance | FRAP in living reporter cells: mobile fraction [1] | further results
AT8mut-CST (S199A/S202A/T205A) | 57% | FRAP in living reporter cells: τ2 [1]: 46.8
Conformational-Sensitive Tau sensor (ECFP-Tau-EYFP, full length Tau-D, 0N4R) (from UniProt P10636-6 1-383) | – | FRAP in living reporter cells: mobile fraction [2]: 73%; FRAP in living reporter cells: τ1 of the MTs-bound phase [2]: 30 s
P301L-CST | 84% | FRAP in living reporter cells: diffusive fraction [1]: 38%
P301S-CST | 85% | –
S422E-CST | 86% | –
